The text below walks through data of the supplement of paper PMC9112550, “Optimization of the antimicrobial peptide Bac7 by deep mutational scanning” (BMC Biology, 2022).
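Note: peptides expressed intracellularly from a pBAD plasmid library in pooled LB shake-flask culture, induced with 0.3% L-arabinose, DNA abundance read by NGS, three biological replicates, DESeq2 with apeglm shrinkage.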

This data set has as its system Escherichia coli TOP10. As to the kind of experiment: shrunken log2 fold change of peptide-encoding DNA abundance (4.5 h post-induction vs induction); higher = less antimicrobial activity (less host growth inhibition). The following applies: time post-induction: 4.5 h; library: site-saturation at positions 5, 18, 19, 20.
As to RRIRFRPPRLPRPRPRPSTVPRP, the “shrunken log2 fold change” value is -0.325.

On to RRIRLRPPRLPRPRPRPNGGPRP, for which the “shrunken log2 fold change” value is -0.01.

Turning to RRIRYRPPRLPRPRPRPKRKPRP, the “shrunken log2 fold change” value is -0.128.

For RRIRERPPRLPRPRPRPEKIPRP, the “shrunken log2 fold change” value amounted to 0.0141.

For the sequence RRIRMRPPRLPRPRPRPIEQPRP, the “shrunken log2 fold change” value came out at 0.0161.

As to RRIRGRPPRLPRPRPRPKQTPRP, the “shrunken log2 fold change” value is 0.175.

Turning to RRIRPRPPRLPRPRPRPLFVPRP, the “shrunken log2 fold change” value was -0.176.

For the sequence RRIRVRPPRLPRPRPRPYNGPRP, the “shrunken log2 fold change” value is -0.514.

Take RRIRERPPRLPRPRPRPWHAPRP: the “shrunken log2 fold change” value stood at 0.421.

As for RRIRGRPPRLPRPRPRPCEDPRP, the “shrunken log2 fold change” value was determined as 0.0133.

Take RRIRPRPPRLPRPRPRPAQLPRP: the “shrunken log2 fold change” value stood at 0.237.

Turning to RRIRARPPRLPRPRPRPAQAPRP, the “shrunken log2 fold change” value was determined as 0.939.

Turning to RRIRGRPPRLPRPRPRPQWSPRP, the “shrunken log2 fold change” value came out at 0.157.

For the sequence RRIRIRPPRLPRPRPRPHSDPRP, the “shrunken log2 fold change” value is -0.439.

Take RRIRRRPPRLPRPRPRPADPPRP: the “shrunken log2 fold change” value amounted to 0.403.

With RRIRYRPPRLPRPRPRPEFMPRP, the “shrunken log2 fold change” value is -0.0255.

For RRIRMRPPRLPRPRPRPMCEPRP, the “shrunken log2 fold change” value is 0.273.

In the case of RRIRFRPPRLPRPRPRPNPFPRP, the “shrunken log2 fold change” value stood at 0.0605.

As for RRIRLRPPRLPRPRPRPTTPPRP, the “shrunken log2 fold change” value was found to be 0.138.

As to RRIRQRPPRLPRPRPRPNSRPRP, the “shrunken log2 fold change” value was -0.0312.

As to RRIRQRPPRLPRPRPRPICIPRP, the “shrunken log2 fold change” value was -0.0334.

On to RRIRLRPPRLPRPRPRPQPLPRP, for which the “shrunken log2 fold change” value was found to be 0.00386.

On to RRIRDRPPRLPRPRPRPFAGPRP, for which the “shrunken log2 fold change” value amounted to 0.0426.

Turning to RRIRKRPPRLPRPRPRPMCWPRP, the “shrunken log2 fold change” value is 0.0564.

In the case of RRIRMRPPRLPRPRPRPMDPPRP, the “shrunken log2 fold change” value amounted to 0.038.

As to RRIRTRPPRLPRPRPRPLQFPRP, the “shrunken log2 fold change” value is -0.497.

With RRIRGRPPRLPRPRPRPFGVPRP, the “shrunken log2 fold change” value turned out to be 0.446.

As for RRIRARPPRLPRPRPRPCLLPRP, the “shrunken log2 fold change” value was determined as 0.0509.

On to RRIRWRPPRLPRPRPRPIGHPRP, for which the “shrunken log2 fold change” value came out at 0.0282.

Regarding RRIRGRPPRLPRPRPRPPHMPRP, the “shrunken log2 fold change” value was 0.489.

Turning to RRIRGRPPRLPRPRPRPIKSPRP, the “shrunken log2 fold change” value was determined as 0.326.

For the sequence RRIRKRPPRLPRPRPRPEPHPRP, the “shrunken log2 fold change” value was 0.829.

With RRIRFRPPRLPRPRPRPQNGPRP, the “shrunken log2 fold change” value is -0.0443.

In the case of RRIRWRPPRLPRPRPRPWQTPRP, the “shrunken log2 fold change” value is -0.0178.

As for RRIRCRPPRLPRPRPRPYWGPRP, the “shrunken log2 fold change” value was -0.427.

As to RRIRARPPRLPRPRPRPPFLPRP, the “shrunken log2 fold change” value is 0.529.

As for RRIRMRPPRLPRPRPRPPRLPRP, the “shrunken log2 fold change” value was 1.06.

In the case of RRIRKRPPRLPRPRPRPEKSPRP, the “shrunken log2 fold change” value stood at 0.0144.

As to RRIRMRPPRLPRPRPRPHFEPRP, the “shrunken log2 fold change” value is -0.0874.

For the sequence RRIRYRPPRLPRPRPRPARRPRP, the “shrunken log2 fold change” value came to 0.234.

RRIRSRPPRLPRPRPRPIQYPRP: the “shrunken log2 fold change” value is -0.383.

Consider RRIRVRPPRLPRPRPRPDKYPRP, for which the “shrunken log2 fold change” value is -0.277.

On to RRIRDRPPRLPRPRPRPNSPPRP, for which the “shrunken log2 fold change” value is -0.0573.

For the sequence RRIRDRPPRLPRPRPRPAKGPRP, the “shrunken log2 fold change” value was -0.0222.

Turning to RRIRNRPPRLPRPRPRPCHKPRP, the “shrunken log2 fold change” value is -0.00663.

On to RRIRQRPPRLPRPRPRPAALPRP, for which the “shrunken log2 fold change” value stood at 0.247.

With RRIRQRPPRLPRPRPRPRPFPRP, the “shrunken log2 fold change” value is 0.149.

With RRIRARPPRLPRPRPRPNEYPRP, the “shrunken log2 fold change” value was -0.284.

On to RRIRMRPPRLPRPRPRPSHTPRP, for which the “shrunken log2 fold change” value amounted to 0.0597.

On to RRIRVRPPRLPRPRPRPRKGPRP, for which the “shrunken log2 fold change” value was 0.328.
